Measurements published in patent US20190054137A1 (INDIANA UNIVERSITY RESEARCH AND TECHNOLOGY, published 2019).

The binders below were run against T1, Recombinant human p65 protein (r-p65) with DDK tag (OriGene catalog number TP320780) (human, UniProt Q04206 1-551) (assay: plate-bound PGA probed with r-p65-DDK, method of Friguet, Scatchard analysis).
T1 construct: mature; also called r-p65-DDK; human r-p65; not shown: DDK tag
T1 sequence (Q04206 whole entry): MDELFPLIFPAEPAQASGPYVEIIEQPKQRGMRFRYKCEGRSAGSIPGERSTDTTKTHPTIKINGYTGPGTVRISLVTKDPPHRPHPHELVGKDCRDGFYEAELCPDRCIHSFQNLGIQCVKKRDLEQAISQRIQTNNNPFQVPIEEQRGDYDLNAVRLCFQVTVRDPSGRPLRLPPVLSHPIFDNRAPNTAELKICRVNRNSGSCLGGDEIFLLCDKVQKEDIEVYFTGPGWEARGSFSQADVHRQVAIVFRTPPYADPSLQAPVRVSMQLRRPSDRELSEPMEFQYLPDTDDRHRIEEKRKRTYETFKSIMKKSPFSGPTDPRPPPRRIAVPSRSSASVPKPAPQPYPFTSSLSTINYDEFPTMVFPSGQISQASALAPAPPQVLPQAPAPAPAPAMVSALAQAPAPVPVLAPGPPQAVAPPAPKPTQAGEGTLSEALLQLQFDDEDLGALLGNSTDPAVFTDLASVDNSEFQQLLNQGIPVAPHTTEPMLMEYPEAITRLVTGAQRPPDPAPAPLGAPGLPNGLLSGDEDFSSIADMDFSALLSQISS
Ac-EPAPLAPYG-NH2 (also called Analog 3 (GA-2)) [PGA-2] gave a Kd of 2.29 µM. Ac-EPAPESPQV-NH2 (also called Analog 7 (GA-4)) [PGA-4] showed a Kd of 3.28 µM. In the case of Ac-EPAPEQPDG-NH2 (also called Analog 8 (GA-5)) [PGA-5], the Kd is reported as 3.4 µM. In the case of Ac-EPAPYQPEG-NH2 (also called Analog 14 (GA-3)) [PGA-3], the Kd is reported as 3.27 µM. With Ac-APKPYQPRG-NH2 (also called Analog 20 (GA-1)) [PGA-1] the Kd was 4.28 µM.
